# In patent US20250270324A1 (INVOX PHARMA, published 2025):
# B1: G1/280_02_G02 (antibody, human IgG1, V domains shown)
# VH: EVQLVQSGAEVKRPGASVKVSCKASGYTFTSYGISWVRQAPGQGLEWMGWISAYNGNTNYAQKLQGRVTMTTDTSTSTAYMELRSLRSDDTAVYYCARDLFPTIFGVSYYYYWGQGTLVTVSS
# VL: QSALTQPASVSGSPGQSITISCTGTSSDVGGYNSVSWYQQFPGKAPKLMIFEVTNRPSGVSDRFSGSKSDNTASLTISGLQAEDEAEYYCSSFKRGSTLVVFG
# B2: G1/887_04_G12 (antibody, human IgG1, V domains shown)
# VH: EVQLVQSGAEVKRPGASVKVSCKASGYTFTSYGISWVRQAPGQGLEWMGWISAYNSNTNYAQKLQGRVTMTTDTSTSTAYMELRSLRSDDTAVYYCARDLFPTIFGVSYYYYWGQGTLVTVSS
# VL: DIQMTQSPSTLSASVGDRVTITCRASQSISGRLAWYQQKPGKAPNLLIYEASNLESGVPSRFSGSGSGTEFTLTISSLQPEDFATYYCQQSYSWPRTFGQGTKVEIKR
# notes: IgG1 without LALA, kappa light chain
# B3: G1/929_01_A02 (antibody, human IgG1, V domains shown)
# VH: EVQLVQSGAEVKRPGASVKVSCKASGYTFTSYGISWVRQAPGQGLEWMGWISAYSGGTNYAQKLQGRVTMTTDTSTSTAYMELRSLRSDDTAVYYCARDLFPTIFGVSYYYYWGQGTLVTVSS
# VL: DIQMTQSPSTLSASVRDRVIITCRASQSIGNRLAWYQHKPGKAPKLLIYEASTSETGVPSRFSGSGSGTDFTLTISSLQPEDFATYYCQQSYSTPYTFGQGTKLEIKR
# notes: IgG1; The heavy chain as printed has T28
# B4: G1/887_04_E12 (antibody, human IgG1, V domains shown)
# VH: EVQLVQSGAEVKRPGASVKVSCKASGYPFTSYGISWVRQAPGQGLEWMGWISAYNSNTNYAQKLQGRVTMTTDTSTSTAYMELRSLRSDDTAVYYCARDLFPTIFGVSYYYYWGQGTLVTVSS
# VL: DIQMTQSPSTLSASVRDRVIITCRASQSIGNRLAWYQHKPGKAPKLLIYEASTSETGVPSRFSGSGSGTDFTLTISSLQPEDFATYYCQQSYSTPYTFGQGTKLEIKR
# notes: IgG1 without LALA, kappa light chain; proline at Kabat position 28 of VH
# B5: G1/894_08_E05 (antibody, human IgG1, V domains shown)
# VH: EVQLVQSGAEVKRPGASVKVSCKASGYTFTSYGISWVRQAPGQGLEWMGWISAYNSNTNYAQKLQGRVTMTTDTSTSTAYMELRSLRSDDTAVYYCARDLFPTIFGVSYYYYWGQGTLVTVSS
# VL: DIQMTQSPSTLSASVGDRVTITCRASQSISGRLAWYQQKPGKAPNLLIYEASNLESGVPSRFSGSGSGTEFTLTISSLQPEDFATYYCQQSYSTPRVTFGQGTKVEIKR
# notes: IgG1 without LALA, kappa light chain; also called G1/894_8_E05
# Assays:
# [1] = target: T1, PD-L1 on PD-L1 cells (Promega, CS178103; PD1/PD-L1 Blockade Bioassay J1250/J1255) (UniProt Q9NZQ7 19-290); assay: cell-based or functional assay
# T1 sequence (Q9NZQ7 19-290): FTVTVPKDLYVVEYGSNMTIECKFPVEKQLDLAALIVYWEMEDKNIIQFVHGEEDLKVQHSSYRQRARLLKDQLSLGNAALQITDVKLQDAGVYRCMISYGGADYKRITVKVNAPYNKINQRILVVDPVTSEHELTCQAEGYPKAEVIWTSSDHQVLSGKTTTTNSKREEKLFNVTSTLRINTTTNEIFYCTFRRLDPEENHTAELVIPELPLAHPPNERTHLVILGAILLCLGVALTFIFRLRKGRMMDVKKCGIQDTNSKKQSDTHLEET
# [2] = target: T1, PD-L1 on PD-L1 cells (Promega, …); assay: cell-based or functional assay; remark: listed apart in the source
# Cyno PD-L1-rCD4-His [3] = target: T2, Cyno PD-L1-rCD4-His (cynomolgus); assay: SPR, IgG1 from culture supernatant
# T2 construct: The entry as printed begins with the signal peptide; also called cynomolgus PD-L1-rCD4-His
# T2 sequence (chain, as listed by the source limits assumed): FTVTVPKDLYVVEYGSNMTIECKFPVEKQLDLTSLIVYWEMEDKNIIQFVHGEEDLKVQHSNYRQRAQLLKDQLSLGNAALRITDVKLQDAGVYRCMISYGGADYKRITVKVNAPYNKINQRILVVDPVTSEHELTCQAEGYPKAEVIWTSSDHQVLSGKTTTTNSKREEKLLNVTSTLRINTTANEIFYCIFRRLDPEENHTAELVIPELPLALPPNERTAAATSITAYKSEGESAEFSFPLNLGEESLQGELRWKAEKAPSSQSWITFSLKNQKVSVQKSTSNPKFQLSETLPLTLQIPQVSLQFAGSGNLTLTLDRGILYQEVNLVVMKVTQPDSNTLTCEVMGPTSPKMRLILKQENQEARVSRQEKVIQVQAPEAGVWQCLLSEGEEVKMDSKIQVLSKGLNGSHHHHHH
# human PD-L1-rCD4-His [4] = target: T3, human PD-L1-rCD4-His (human); assay: SPR, IgG1 from culture supernatant
# T3 construct: Human PD-L1 fused to the monomeric C-terminal rat CD4 domains 3 and 4 tag and His tag; made in HEK293; The entry as printed begins with the signal peptide (MRIF...); also called hPD-L1-rCD4-His; hu-PD-L1-rCD4-His
# T3 sequence (chain, as listed by the source limits assumed): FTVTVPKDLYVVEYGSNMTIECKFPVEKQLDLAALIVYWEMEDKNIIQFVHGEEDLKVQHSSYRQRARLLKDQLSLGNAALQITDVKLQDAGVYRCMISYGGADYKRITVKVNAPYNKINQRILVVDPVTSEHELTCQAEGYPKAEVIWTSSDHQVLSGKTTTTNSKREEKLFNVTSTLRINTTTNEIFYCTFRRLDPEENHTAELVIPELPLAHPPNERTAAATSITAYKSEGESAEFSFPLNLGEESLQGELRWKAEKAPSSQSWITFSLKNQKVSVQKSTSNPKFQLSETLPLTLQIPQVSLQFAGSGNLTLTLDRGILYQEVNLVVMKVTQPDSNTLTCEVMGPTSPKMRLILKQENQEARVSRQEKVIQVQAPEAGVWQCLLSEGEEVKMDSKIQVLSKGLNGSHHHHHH
# [5] = target: T4, cynomolgus PD-L1-His (Acro Biosystems, PD1-C52H4) (cynomolgus, UniProt G7PSE7 19-239); assay: SPR (Biacore T200), mAb on Protein A chip, antigen 81-0.037 nM
# T4 construct: Bought; also called Cyno PD-L1-His
# T4 sequence (G7PSE7 entry or part of it): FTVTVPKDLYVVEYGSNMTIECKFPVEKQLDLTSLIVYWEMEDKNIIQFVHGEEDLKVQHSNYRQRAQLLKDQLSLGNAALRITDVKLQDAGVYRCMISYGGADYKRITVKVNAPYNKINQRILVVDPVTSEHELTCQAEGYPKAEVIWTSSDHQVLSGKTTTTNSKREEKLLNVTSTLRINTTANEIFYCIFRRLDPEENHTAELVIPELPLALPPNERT
# Procedure: (§1) Briefly, the anti-PD-L1 mAbs, diluted in HBS-EP buffer (GE Healthcare, BR100188) at 2 μg/ml, were injected individually on flows cell 2, 3 and 4 of a Protein A chip (GE Healthcare, 29127556) at 30 μl/min to achieve a final response of approximately 110 RU. The recombinant human, cynomolgus and mouse PD-L1-His antigens, diluted in HBS-EP buffer, were injected on flow cell 1, 2, 3 or 4 as appropriate at a concentration range of 81 nM to 0.037 nM with 3-fold dilutions for 4 min at 75 μl/min and then allowed to dissociate in buffer for 10 min. Regeneration was achieved by injecting 10 mM glycine-HCL pH1.5 (GE Healthcare, Human Antibody Capture Kit, BR00356) for 30 sec at a rate of 30 μl/min. Subtracted data (flow cell 2-flow cell 1, flow cell 3-flow cell 1, or flow cell 4-flow cell 1) were analysed using BIAevaluation 3.2 Software (GE Healthcare) to identify binding using the model 1:1 binding with mass transfer, with refractive index (RI) constant 0. To determine the affinities of the mouse PD-L1 binding curves, the Rmax of the corresponding human binding profiles was used.
# [6] = target: T5, biotinylated human PD-L1-Avi-His (Acro Biosystems, PD1-H82E5) (human, UniProt Q9NZQ7 19-238, biotinylated); assay: as above
# T5 construct: Bought
# T5 sequence (Q9NZQ7 19-238 limits assumed): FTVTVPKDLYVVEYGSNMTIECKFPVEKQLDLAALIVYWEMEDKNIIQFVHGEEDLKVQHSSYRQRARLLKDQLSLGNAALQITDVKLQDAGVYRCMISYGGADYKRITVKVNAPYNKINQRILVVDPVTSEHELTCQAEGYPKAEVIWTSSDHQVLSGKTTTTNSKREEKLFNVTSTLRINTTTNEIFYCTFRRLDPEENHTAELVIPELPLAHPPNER
# Procedure: as §1
# [7] = target: T6, mouse PD-L1-His (Acro Biosystems, PD1-M5220) (mouse, UniProt Q9EP73 19-238); assay: SPR (Biacore T200), mAb on Protein A chip, antigen 81-0.037 nM; Rmax of the human profile used
# T6 construct: Bought; also called recombinant mouse PD-L1
# T6 sequence (Q9EP73 19-238 limits assumed): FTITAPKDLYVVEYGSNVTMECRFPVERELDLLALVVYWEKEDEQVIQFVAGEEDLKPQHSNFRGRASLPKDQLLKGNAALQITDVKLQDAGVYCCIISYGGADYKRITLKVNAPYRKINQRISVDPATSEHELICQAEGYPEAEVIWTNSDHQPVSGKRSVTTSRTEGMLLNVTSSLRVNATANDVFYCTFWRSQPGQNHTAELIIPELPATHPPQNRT
# Procedure: as §1
# [8] = target: T7, human PD-L1 on HEK293 cells (HEK293.hPD-L1) (human, UniProt Q9NZQ7 19-290); assay: flow cytometry on HEK293 cells expressing human PD-L1, GMFI against concentration
# T7 construct: Flp-In T-REx 293 cells stably overexpressing human PD-L1; also called cell surface human PD-L1
# T7 sequence (Q9NZQ7 19-290): as the sequence (Q9NZQ7 19-290) above
# Procedure: Non-specific binding was also assessed by testing binding to HEK293 parental cells lacking human PD-L1 (Flp-In T-Rex 293 cell line, Life Technologies, R780-07).
# HEK293 and HEK293.hPD-L1 suspensions were prepared in PBS containing 0.5% BSA (Sigma. A7906) and seeded at 1×10⁵ cell/well in 100 μl in round bottomed 96-well plates (VWR, 734-1797). […] The washed cells were resuspended in the diluted antibody mixture, incubated at 4° C. for 30 minutes, and then washed once in PBS. 100 μl/well of secondary antibody (Alexa Fluor 647-AffiniPure Goat Anti-Human IgG, F(ab′)2 Fragment Specific, Stratech Scientific, 109-605-006-JIR) diluted 1:1000 in PBS was then added, the cells/antibody mixture was incubated for 20 mins at 4° C., and the cells were then washed again with PBS and resuspended in 100 μl of PBS containing 7AAD (1:1000, Biotium, 40043) before being analysed using a Canto II flow cytometer (BD Bioscience). Dead cells were excluded and the fluorescence in the FITC channel (488 nm/530/30) was measured. The geometric mean fluorescence intensity (GMFI) values were plotted against the log concentration of antibody and the resulting curves were fitted using the log (agonist) versus response equation in GraphPad Prism.
# [9] = target: mouse PD-L1 on LK35.2 cells (LK35.2 mPD-L1) (mouse, UniProt Q9EP73 19-290); assay: cell-based or functional assay
# mouse PD-L1 on LK35.2 cells (LK35.2 mPD-L1), sequence (Q9EP73 19-290): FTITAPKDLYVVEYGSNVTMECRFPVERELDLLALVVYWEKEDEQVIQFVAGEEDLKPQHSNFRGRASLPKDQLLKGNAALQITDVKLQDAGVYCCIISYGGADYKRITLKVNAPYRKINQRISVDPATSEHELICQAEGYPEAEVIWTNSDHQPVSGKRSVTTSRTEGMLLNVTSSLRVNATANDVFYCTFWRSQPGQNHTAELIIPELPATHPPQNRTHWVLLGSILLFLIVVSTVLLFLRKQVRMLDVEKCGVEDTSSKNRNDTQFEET
# Cyno PD-L1-rCD4-His [10] = target: T2, Cyno PD-L1-rCD4-His; assay: SPR; G1/929_01_A02 on PD-L1-rCD4-His (Table 8) against G1AA/E12v2 on PD-L1-His (Table 9)
# human PD-L1-rCD4-His [11] = target: T3, human PD-L1-rCD4-His; assay: as above
# [12] = target: T5, biotinylated human PD-L1-Avi-His (Acro …); assay: SPR; end of the range tied to this clone by the KD values of Table 4
# Procedure: as §1
Binder,"half maximal effective concentration (EC50), dose-response co-culture reporter assay (luciferase) [1] [nM]","IC50 (nM), PD1/PD-L1 Blockade Bioassay [2] [nM]",Kd (Cyno PD-L1-rCD4-His [3]) [nM],Kd (human PD-L1-rCD4-His [4]) [nM],Kd [5] [nM],Kd [6] [nM],Kd [7] [nM],EC50 [8] [nM],"EC50 (nM), mPD-L1 DO11.10 T Cell Activation Assay (IL-2 release) [9] [nM]","Emax (pg/ml), mPD-L1 DO11.10 T Cell Activation Assay (IL-2 release) [9] [pg/mL]",fold lower affinity than G1AA/E12v2 (Cyno PD-L1-rCD4-His [10]) [fold],fold lower affinity than G1AA/E12v2 (human PD-L1-rCD4-His [11]) [fold],fold higher binding affinity than G1AA/280_02_G02_NS [12] [fold]
B1,4.2,,,,,,,,,,,,
B2,,0.33,0.5,0.36,0.45,0.39,225,0.27,2.71,1910,,,
B3,,,3.64,3.07,,,,,,,> 10,> 10,
B4,,0.35,0.25,0.21,0.28,0.23,38,0.26,1.02,1970,,,1.8 to 4.8
B5,,0.36,0.59,0.48,0.49,0.6,223,0.29,4.37,2110,,,1.8 to 4.8
